Laboratory results reported in publication PMC10869706, “Chp1 is a dedicated chaperone at the ribosome that safeguards eEF1A biogenesis” (Nature Communications, 2024).

B1: Chp1 (in yeast cells expressing V5-eEF1A) [yeast (S. cerevisiae)] / WT eEF1A (V5-TEF2) [yeast (S. cerevisiae)] (parent complex)
chain 1: MSTFNAETADNLEDIEKQFAVVAVEQAETYWKLLTSVPGSKLRLTKFDDEIYENFMERFPEYKDVERVKKFTEEELKTKEAKERWRKFFTIFEKKIEDYNFGTLLRTDASAEYGQFTTCFVVRLQFYAFEIARNKHGLNDWIVGQK
chain 2: MGKEKSHINVVVIGHVDSGKSTTTGHLIYKCGGIDKRTIEKFEKEAAELGKGSFKYAWVLDKLKAERERGITIDIALWKFETPKYQVTVIDAPGHRDFIKNMITGTSQADCAILIIAGGVGEFEAGISKDGQTREHALLAFTLGVRQLIVAVNKMDSVKWDESRFQEIVKETSNFIKKVGYNPKTVPFVPISGWNGDNMIEATTNAPWYKGWEKETKAGVVKGKTLLEAIDAIEQPSRPTDKPLRLPLQDVYKIGGIGTVPVGRVETGVIKPGMVVTFAPAGVTTEVKSVEMHHEQLEQGVPGDNVGFNVKNVSVKEIRRGNVCGDAKNDPPKGCASFNATVIVLNHPGQISAGYSPVLDCHTAHIACRFDELLEKNDRRSGKKLEDHPKFLKSGDAALVKFVPSKPMCVEAFSEYPPLGRFAVRDMRQTVAVGVIKSVDKTEKAAKVTKAAQKAAKK

Variants of: B1
Experiment: co-IP (IP α-V5, blot α-Chp1), quantified; parent: 1; read off a plot

| ratio to parent | Variant |
| --- | --- |
| ~0.5 | chain 2 MGKEKSHINVVVIGHVDSGKSTTTGHLIYKCGGIDKRTIEKFEKEAAELGKGSFKYAWVLDKLKAERERGITIDIALWKFETPKYQVTVIDAPGHRDFIKNMITGTSQADCAILIIAGGVGEFEEGISKDGQTREHALLAFTLGVRQLIVAVNKMDSVKWDESRFQEIVKETSNFIKKVGYNPKTVPFVPISGWNGDNMIEATTNAPWYKGWEKETKAGVVKGKTLLEAIDAIEQPSRPTDKPLRLPLQDVYKIGGIGTVPVGRVETGVIKPGMVVTFAPAGVTTEVKSVEMHHEQLEQGVPGDNVGFNVKNVSVKEIRRGNVCGDAKNDPPKGCASFNATVIVLNHPGQISAGYSPVLDCHTAHIACRFDELLEKNDRRSGKKLEDHPKFLKSGDAALVKFVPSKPMCVEAFSEYPPLGRFAVRDMRQTVAVGVIKSVDKTEKAAKVTKAAQKAAKK [chain 2 A125E] |
| ~1.2 | chain 2 MGKEKSHINVVVIGHVDSGKSTTTGHLIYKCGGIDKRTIEKFEKEAAELGKGSFKYAWVLDKLKAERERGITIDIALWKFETPKYQVTVIDAPGHRDFIKNMITGTSQADCAILIIAGGVGEFEAGISKDGQTREHALLAFTLGVRQLIVAVNKMDSVKWDESRFQEIVKETSNFIKKVGYNPKTVPFVPISGWNGDNMIEATTNAPWYKGWEKETKAGVVKGKTLLEAIDAIEQPSRPTDKPLRLPLQDVYKIGGIGTVPVGRVETGVIKPGMVVTFAPAGVTTEVKSVEMHHEQLEQGVPGDNVGFNVKNVSVKEIRRGNVCGDAKNDPPKGCASFNATVIVLNHPGQISAGYSPVLDCHTAHIACRFDELLEKNDRRSGKKLEDHPKFLKSGDAALVKFVPSKPMCVEAFSEYPPLGCFAVRDMRQTVAVGVIKSVDKTEKAAKVTKAAQKAAKK [chain 2 R421C] |
| ~0.25 | chain 2 MGKEKSHINVVVIGHVDSGKSTTTGHLIYKCGGIDKRTIEKFEKEAAELGKGSFKYAWVLDKLKAERERSITIDIALWKFETPKYQVTVIDAPGHRDFIKNMITGTSQADCAILIIAGGVGEFEAGISKDGQTREHALLAFTLGVRQLIVAVNKMDSVKWDESRFQEIVKETSNFIKKVGYNPKTVPFVPISGWNGDNMIEATTNAPWYKGWEKETKAGVVKGKTLLEAIDAIEQPSRPTDKPLRLPLQDVYKIGGIGTVPVGRVETGVIKPGMVVTFAPAGVTTEVKSVEMHHEQLEQGVPGDNVGFNVKNVSVKEIRRGNVCGDAKNDPPKGCASFNATVIVLNHPGQISAGYSPVLDCHTAHIACRFDELLEKNDRRSGKKLEDHPKFLKSGDAALVKFVPSKPMCVEAFSEYPPLGRFAVRDMRQTVAVGVIKSVDKTEKAAKVTKAAQKAAKK [chain 2 G70S] |
| ~0.45 | chain 2 MGKEKSHINVVVIGHVDSGKSTTTGHLIYKCGGIDKRTIEKFEKEAAELGKGSFKYAWVLDKLKAERERGITIDIALWKFETPKYQVTVINAPGHRDFIKNMITGTSQADCAILIIAGGVGEFEAGISKDGQTREHALLAFTLGVRQLIVAVNKMDSVKWDESRFQEIVKETSNFIKKVGYNPKTVPFVPISGWNGDNMIEATTNAPWYKGWEKETKAGVVKGKTLLEAIDAIEQPSRPTDKPLRLPLQDVYKIGGIGTVPVGRVETGVIKPGMVVTFAPAGVTTEVKSVEMHHEQLEQGVPGDNVGFNVKNVSVKEIRRGNVCGDAKNDPPKGCASFNATVIVLNHPGQISAGYSPVLDCHTAHIACRFDELLEKNDRRSGKKLEDHPKFLKSGDAALVKFVPSKPMCVEAFSEYPPLGRFAVRDMRQTVAVGVIKSVDKTEKAAKVTKAAQKAAKK [chain 2 D91N] |
| ~0.3 | chain 2 MGKEKSHINVVVIGHVDSGKSTTTGHLIYKCGGIDKRTIEKFEKEAAELGKGSFKYAWVLDKLKAERERGITIDIALWKFETPKYQVTVIDAPGHRDFIKNMITGTSQADCAILIIAGGVGEFEAGISKDGQTREHALLAFTLGVRQLIVAVNKMDSVKWDESRFQEIVKETSNFIKKVGYNPKTVPFVPISGWNGDNMIEATTNAPWYKGWEKETKAGVVKGKTLLEAIDAIEQPSRPTDKPLRLPLQDVYKIGGIGTVPVGWVETGVIKPGMVVTFAPAGVTTEVKSVEMHHEQLEQGVPGDNVGFNVKNVSVKEIRRGNVCGDAKNDPPKGCASFNATVIVLNHPGQISAGYSPVLDCHTAHIACRFDELLEKNDRRSGKKLEDHPKFLKSGDAALVKFVPSKPMCVEAFSEYPPLGRFAVRDMRQTVAVGVIKSVDKTEKAAKVTKAAQKAAKK [chain 2 R264W] |
| ~2.4 | chain 2 MGKEKSHINVVVIGHVDSGKSTTTGHLIYKCGGIDKRTIEKFEKEAAELGKGSFKYAWVLDKLKAERERGITIDIALWKFETPKYQVTVIDAPGHRDFIKNMITGTSQADCAILIIAGGVGEFEAGISKDGQTREHALLAFTLGVRQLIVAVNKMDSVKWDESRFQEIVKETSNFIKKVGYNPKTVPFVPISGWNGDNMIEATTNAPWYKGWEKETKAGVVKGKTLLEAIDAIEQPSRPTDKPLRLPLQDVYKIGGIGTVPVGRVETGVIKPGMVVTFAPAGVTTEVKSVEMHHEQLEQGVPGDNVGFNVKNVSVKEIRRGNVCGDAKNDLPKGCASFNATVIVLNHPGQISAGYSPVLDCHTAHIACRFDELLEKNDRRSGKKLEDHPKFLKSGDAALVKFVPSKPMCVEAFSEYPPLGRFAVRDMRQTVAVGVIKSVDKTEKAAKVTKAAQKAAKK [chain 2 P331L] |
| ~0.5 | chain 2 MGKEKSHINVVVIGHVDSGKSTTTGHLIYKCGGIDKRTIEKFEKEAAELGKGSFKYAWVLDKLKAERERGITIDIALWKFETPKYQVTVIDAPGHRDFIKNMITGTSQADCAILIIAGGVGEFEAGISKDGQTREHALLAFTLGVRQLIVAVNKMDSVKWDESRFQEIVKETSNFIKKVGYNPKTVPFVPISGWNGDNMIEATTNAPWYKGWEKETKAGVVKGKTLLEAIDAIEQPSRPTDKPLRLPLQDVYKIGGIGTVPVGRVETGVIKPGMVVTFAPAGVTTEVKSVEMHHEQLEQGVPGDNVGFNVKNVSVKEIRRGNVCGDAKNDPPKGCASFNATVIVLNHPGQISAGYSPVLDCHTAHIACRFDELLEKNDRRSRKKLEDHPKFLKSGDAALVKFVPSKPMCVEAFSEYPPLGRFAVRDMRQTVAVGVIKSVDKTEKAAKVTKAAQKAAKK [chain 2 G382R] |
